Assay [1] has as its target HLA-A*01:01. Description: IEDB peptide-MHC binding, purified MHC/direct/fluorescence; filed as Kd, often an IC50 or EC50 that approximates it; ≥ and ≤ were set here for values at or beyond the usual limits of such assays.
In assay [2] the target is HLA-A*29:02. The assay is described as above.
In assay [3] the target is HLA-B*51:01. Description: IEDB peptide-MHC binding, purified MHC/competitive/radioactivity; filed as Kd, often an IC50 or EC50 that approximates it; ≥ and ≤ were set here for values at or beyond the usual limits of such assays. The note with it: source organism: Hepatitis C virus (isolate 1).
Assay [4] deals with HLA-A*03:01. The assay is described as above. As to conditions: source organism: Hepatitis C virus (isolate 1).
The target of assay [5] is HLA-B*07:02. The assay is described as above. As to conditions: source organism: Hepatitis C virus (isolate 1).
The target in assay [6] is HLA-A*33:01. Described as above. The note with it: source organism: Hepatitis C virus (isolate 1).
Assay [7] concerns the target HLA-A*02:03. Described as above. The note with it: source organism: Hepatitis C virus (isolate 1).
In assay [8] the target is HLA-A*01:01. Described as above. As to conditions: source organism: Hepatitis C virus (isolate 1).
Assay [9] has as its target HLA-B*40:01. The description is as above. The note with it: source organism: Hepatitis C virus (isolate 1).
Assay [10] deals with HLA-A*02:01. Described as above. The note with it: source organism: Hepatitis C virus (isolate 1).
In assay [11] the target is HLA-B*40:02. Described as above. As to conditions: source organism: Hepatitis C virus (isolate 1).
The target in assay [12] is HLA-A*68:01. The assay is described as above. The note with it: source organism: Hepatitis C virus (isolate 1).
In assay [13] the target is HLA-B*54:01. The description is as above. The note with it: source organism: Hepatitis C virus (isolate 1).
Assay [14] concerns the target HLA-A*11:01. The assay is described as above. As to conditions: source organism: Hepatitis C virus (isolate 1).
Assay [15] addresses HLA-B*44:03. The assay is described as above. As to conditions: source organism: Hepatitis C virus (isolate 1).
Assay [16] addresses HLA-A*02:02. The description is as above. The note with it: source organism: Hepatitis C virus (isolate 1).
Assay [17] deals with HLA-A*31:01. The description is as above. The note with it: source organism: Hepatitis C virus (isolate 1).
The target of assay [18] is HLA-B*53:01. Described as above. The note with it: source organism: Hepatitis C virus (isolate 1).
Assay [19] concerns the target HLA-A*02:06. Described as above. As to conditions: source organism: Hepatitis C virus (isolate 1).
Assay [20] concerns the target HLA-B*18:01. The assay is described as above. The note with it: source organism: Hepatitis C virus (isolate 1).
The target in assay [21] is HLA-B*35:01. The description is as above. The note with it: source organism: Hepatitis C virus (isolate 1).
Assay [22] concerns the target HLA-A*68:02. Described as above. The note with it: source organism: Hepatitis C virus (isolate 1).
Assay [23] has as its target HLA-A*03:01. Description: IEDB peptide-MHC binding, purified MHC/direct/fluorescence; filed as Kd, often an IC50 or EC50 that approximates it; ≥ and ≤ were set here for values at or beyond the usual limits of such assays.
In assay [24] the target is HLA-A*69:01. The assay is described as above.
Assay [25] addresses HLA-B*46:01. The assay is described as above.
The target of assay [26] is HLA-B*40:01. The description is as above.
The target in assay [27] is HLA-B*44:02. The assay is described as above.
Assay [28] deals with HLA-B*57:01. The assay is described as above.
The target in assay [29] is HLA-A*02:01. The assay is described as above.
The target in assay [30] is HLA-A*11:01. The description is as above.
In assay [31] the target is HLA-B*08:01. The description is as above.
Assay [32] concerns the target HLA-B*27:05. The assay is described as above.
Assay [33] has as its target HLA-B*58:01. The description is as above.
Assay [34] has as its target HLA-A*31:01. Described as above.
Assay [35] addresses HLA-B*18:01. Described as above.
For assay [36], the target named is HLA-B*48:01. Described as above.
Assay [37] deals with HLA-B*07:02. Described as above. The note with it: source organism: Mycobacterium tuberculosis.
Assay [38] addresses HLA-A*02:01. Description: IEDB peptide-MHC binding, purified MHC/competitive/fluorescence; filed as Kd, often an IC50 or EC50 that approximates it; ≥ and ≤ were set here for values at or beyond the usual limits of such assays. The note with it: source organism: Mycobacterium tuberculosis variant bovis BCG str. Pasteur 1173P2.
The target in assay [39] is HLA-B*15:01. Description: IEDB peptide-MHC binding, purified MHC/direct/fluorescence; filed as Kd, often an IC50 or EC50 that approximates it; ≥ and ≤ were set here for values at or beyond the usual limits of such assays. As to conditions: source organism: Mycobacterium tuberculosis variant bovis.
The target in assay [40] is HLA-B*51:01. Description: IEDB peptide-MHC binding, purified MHC/competitive/fluorescence; filed as Kd, often an IC50 or EC50 that approximates it; ≥ and ≤ were set here for values at or beyond the usual limits of such assays. The note with it: source organism: Mycobacterium tuberculosis variant bovis.
The mark [41] stands for this setting: source organism: Mammarenavirus juninense.
The mark [42] stands for this setting: source organism: Mycobacterium tuberculosis C.
[43] abbreviates: source organism: Mycobacterium tuberculosis.
The mark [44] stands for this setting: source organism: Mycobacterium tuberculosis variant bovis.

Where only a bound is given, the exact number is not on record here.

Regarding ATDPVEMAL, the Kd was 0.308 µM in assay [1] (setting [41]) and at least 20 µM in assay [2] (setting [41]).
For the sequence HSKKKCDEL, the Kd was at least 77.5 µM in assay [3]; at least 78 µM in [4]; at least 77.5 µM in [5]; at least 77.7 µM in assay [6]; at least 78.1 µM in [7]; 3.52 µM in assay [8]. For the same sequence, the Kd in assay [9] was at least 76.2 µM; in assay [10] it was at least 69.4 µM; in assay [11] it was at least 77.3 µM; in [12], at least 77.7 µM; in [13], at least 78.1 µM; in assay [14], at least 37.3 µM. The Kd in [15] was at least 78.2 µM; in assay [16] it was at least 70 µM; in [17], at least 65 µM; in assay [18] it was at least 78.2 µM; in [19] it was at least 77.1 µM; in assay [20], at least 77.5 µM. In addition, the Kd in assay [21] was at least 77.4 µM; in assay [22], at least 69.8 µM.
Consider IIRTENRPL, for which the Kd in assay [23] (setting [42]), in [24] (setting [42]), in assay [25] (setting [42]), in assay [1] (setting [42]), in [26] (setting [42]) and in [27] (setting [42]) was at least 20 µM in each case. In addition, the Kd in assay [28] (setting [42]) is at least 20 µM; in assay [29] (setting [42]), at least 20 µM; in [30] (setting [42]), at least 20 µM; in [31] (setting [42]) it was 3.06 µM; in assay [32] (setting [42]), at least 20 µM; in assay [33] (setting [42]) it was at least 20 µM. In addition, the Kd in assay [2] (setting [42]), in [34] (setting [42]), in assay [35] (setting [42]) and in [36] (setting [42]) was at least 20 µM each time.
As for IQAVFGFSL, the Kd in assay [23] (setting [43]), in assay [37], in [24] (setting [43]), in assay [25] (setting [43]), in [1] (setting [43]) and in assay [27] (setting [43]) was at least 20 µM each time. Further, the Kd in [28] (setting [43]), in assay [30] (setting [43]), in assay [32] (setting [43]), in [33] (setting [43]), in assay [2] (setting [43]) and in assay [34] (setting [43]) was at least 20 µM in each case. Besides, in assay [38], the Kd is 1.35 µM.
With TPREAPYEL, the Kd in [23] (setting [44]), in assay [39], in [24] (setting [44]), in assay [25] (setting [44]), in [1] (setting [44]) and in assay [26] (setting [44]) was at least 20 µM in each case. For the same sequence, the Kd in assay [27] (setting [44]) is at least 20 µM; in assay [28] (setting [44]), at least 20 µM; in assay [29] (setting [44]) it was at least 20 µM; in assay [30] (setting [44]) it was at least 20 µM; in assay [31] (setting [44]), 7 µM; in assay [32] (setting [44]), at least 20 µM. The Kd in assay [33] (setting [44]), in [2] (setting [44]), in [34] (setting [44]), in [35] (setting [44]), in assay [36] (setting [44]) and in [40] was at least 20 µM each time.

As usually defined, the Kd is a measure of binding affinity in units of concentration.

The values above are taken from the Immune Epitope Database (IEDB).
